According to US20220064334A1 (Janssen / Centocor, published 2022):

B1: PE-A002B39 (antibody, mouse IgG2a, kappa, V domains shown)
VH: EVQLVQSGAEVKKPGSSVKVSCKASGGTFSSYAISWVRQAPGQGLEWMGGIIPIFGTANYAQKFQGRVTITADESTSTAYMELSSLRSEDTAVYYCARVQWGLDYWGQGTLVTVSS
VL: EIVLTQSPATLSLSPGERATLSCRASQSVDSALAWYQQKPGQAPRLLIYGASNRATGIPARFSGSGSGTDFTLTISSLEPEDFAVYYCQQRFNWPITFGQGTKVEIKR
modifications: R-phycoerythrin conjugate, 1:1 PE:antibody; attachment site and chain not stated
notes: also called A002B39 conjugated to R-PE
B2: A002B39 (antibody, mouse IgG2a, kappa, V domains shown)
VH: B1 VH
VL: B1 VL
notes: expressed in HEK293 Expi or CHO; also called A002M39

Legend:
[1] = target: T1, KLK2 CAR KL2B413-LH expressed on SupT1 cells; experiment: flow cytometry on KL2B413-LH CAR SupT1 cells, directly PE-labelled antibody, PE median fluorescence
T1 construct: also called SupT1-KL2B413 LH; KL2B413-LH SupT1
Method: Multiple lots of PE-A002B39 were compared to assess differences in binding to KL2B413LH-SupT1 cells across batches. KL2B413-LH SupT1 cells (200,000 cells/well) were stained with LIVE/DEAD Fixable Near-IR viability dye and incubated with increasing concentrations of PE-A002B39 for 30 minutes on ice. After incubation, washing, and fixation, the samples were acquired on a 10 color FACSCanto II flow cytometer. Analysis was done using FlowJo analysis software and the PE median fluorescent intensity of live SupT1 cells is plotted in FIG. 7.

[2] = target: T2, KL2B513; experiment: SPR, Biacore; antibody captured on anti-mouse Fc, scFv-Fc fusion as analyte
T2 construct: KL2B413-derived scFv-Fc fusion protein with the variable regions in VL-VH orientation; also called KL2B413-LH-scFv; KL2B413-LH scFv-Fc fusion protein; not shown: Fc part of the scFv-Fc fusion and its junction to the scFv
Method: Anti-Mouse Fc antibody directly immobilized on M5 sensor chip. Library Antibodies (Mouse IgG2a) diluted to 1 ug/ml to reach approximately 20-50 RU. Antigens (scFV Fc Fusions) are associated at 500 nM to 0.8 nM, 1:5 dilutions for 3 minutes. Dissociation for 30 mins.

[3] = target: T2, KL2B513; experiment: SPR, ProteOn XPR36; antibody captured on anti-mouse Fc, scFv-Fc fusion as analyte
Method: (§1) ProteOn XPR36 system (BioRad) was used to perform binding assays. ProteOn GLC chips (BioRad, Cat#176-5011) were coated with Anti-Mouse Fc antibody. Library Antibodies (Mouse IgG2a) were diluted to 0.25 ug/ml to 1 ug/ml to reach approximately 100-200RL. Antigens (scFv-Fc Fusions) were associated at 1000 nM to 0.4 nM, 1:4 dilutions for 3 minutes, followed by dissociation for 30 mins. The results of the assay (Table 1 below) show similar binding affinity of A002B39 with both KLB513 and KLB610.

[4] = target: T3, KL2B610; experiment: as above
T3 construct: KL2B413-derived scFv-Fc fusion protein with the variable regions in VH-VL orientation; also called KL2B413-HL-scFv; KLB610; not shown: Fc part of the scFv-Fc fusion and its junction to the scFv
Method: as §1

[5] = target: T1, KLK2 CAR KL2B413-LH expressed on SupT1 …; experiment: flow cytometry on KL2B413-LH SupT1 cells, PE goat anti-mouse IgG detection, PE median fluorescence
Method: SupT1 cells expressing KL2B413LH were compared to parental CAR-SupT1 cells. Cells (100,000 cells/well) were stained with LIVE/DEAD Fixable Near-IR viability dye (Life Technologies L10119) and then incubated with increasing concentrations of A002B39 for 30 minutes on ice. Following incubation, the samples were washed with BSA stain buffer (BD Biosciences #554657) and stained with PE-goat anti-mouse IgG polyclonal antibody (Biolegend #405307) to detect bound antibody on live CAR+SupT1 cells. After incubation, washing, and fixation (Cytofix, BD Biosciences), the samples were acquired on a 10 color FACSCanto II (BD Biosciences) flow cytometer. Analysis was done using FlowJo and the PE median fluorescent intensity of live SupT1 cells is plotted in FIG. 4. […] No binding was detected on CAR-SupT1 parental cells.

T2 sequence (scFv, as listed by the source limits assumed): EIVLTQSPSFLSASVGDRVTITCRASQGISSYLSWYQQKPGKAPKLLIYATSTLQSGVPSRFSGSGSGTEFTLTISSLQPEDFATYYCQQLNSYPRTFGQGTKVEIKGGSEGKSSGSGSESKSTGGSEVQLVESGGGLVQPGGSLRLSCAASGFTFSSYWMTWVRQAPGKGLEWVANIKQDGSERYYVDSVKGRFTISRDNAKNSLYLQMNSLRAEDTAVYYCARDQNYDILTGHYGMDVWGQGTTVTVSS
T3 sequence (scFv, as listed by the source limits assumed): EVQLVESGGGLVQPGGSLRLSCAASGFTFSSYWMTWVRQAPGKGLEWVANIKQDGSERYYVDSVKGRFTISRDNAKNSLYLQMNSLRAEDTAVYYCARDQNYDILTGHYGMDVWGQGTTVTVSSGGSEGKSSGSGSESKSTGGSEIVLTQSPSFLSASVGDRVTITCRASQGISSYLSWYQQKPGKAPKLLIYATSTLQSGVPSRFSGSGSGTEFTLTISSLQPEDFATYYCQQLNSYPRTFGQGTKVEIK
T1 sequence (chain, as listed by the source limits assumed): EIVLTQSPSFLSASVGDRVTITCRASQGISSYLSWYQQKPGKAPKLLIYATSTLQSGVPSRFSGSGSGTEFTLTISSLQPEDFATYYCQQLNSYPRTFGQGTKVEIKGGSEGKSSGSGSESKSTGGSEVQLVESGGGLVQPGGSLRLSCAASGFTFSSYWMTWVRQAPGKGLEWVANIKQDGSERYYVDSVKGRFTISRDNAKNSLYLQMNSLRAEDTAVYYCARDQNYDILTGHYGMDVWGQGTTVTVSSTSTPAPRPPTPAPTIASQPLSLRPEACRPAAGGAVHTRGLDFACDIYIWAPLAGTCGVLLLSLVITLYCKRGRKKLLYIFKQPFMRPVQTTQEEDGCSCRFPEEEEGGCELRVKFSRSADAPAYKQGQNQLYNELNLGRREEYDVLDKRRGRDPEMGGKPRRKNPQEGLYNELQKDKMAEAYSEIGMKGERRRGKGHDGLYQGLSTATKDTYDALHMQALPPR

Binder | EC50 [1] | Kd [2] | koff [2] | kon [2] | Kd [3] | koff [3] | kon [3] | Kd [4] | koff [4] | kon [4] | EC50 [5]
B1 | 1.6 µg/mL | – | – | – | – | – | – | – | – | – | –
B2 | – | 3.49 nM | 0.000202 s⁻¹ | 57900 M⁻¹ s⁻¹ | 0.99 nM | 0.000333 s⁻¹ | 339000 M⁻¹ s⁻¹ | 1.11 nM | 0.000315 s⁻¹ | 285000 M⁻¹ s⁻¹ | 0.4 µg/mL
